{"source": "patent US20040254135", "about": "“Modulation of metabolism of steroids and xenobiotics” (published 2004)", "key": {"SXR:RXR heterodimer": {"biological_target": "SXR:RXR heterodimer (UniProt O75469;P19793 O75469:1-434,P19793:1-462)", "sequence (O75469 whole entry, chain 1 of 2)": "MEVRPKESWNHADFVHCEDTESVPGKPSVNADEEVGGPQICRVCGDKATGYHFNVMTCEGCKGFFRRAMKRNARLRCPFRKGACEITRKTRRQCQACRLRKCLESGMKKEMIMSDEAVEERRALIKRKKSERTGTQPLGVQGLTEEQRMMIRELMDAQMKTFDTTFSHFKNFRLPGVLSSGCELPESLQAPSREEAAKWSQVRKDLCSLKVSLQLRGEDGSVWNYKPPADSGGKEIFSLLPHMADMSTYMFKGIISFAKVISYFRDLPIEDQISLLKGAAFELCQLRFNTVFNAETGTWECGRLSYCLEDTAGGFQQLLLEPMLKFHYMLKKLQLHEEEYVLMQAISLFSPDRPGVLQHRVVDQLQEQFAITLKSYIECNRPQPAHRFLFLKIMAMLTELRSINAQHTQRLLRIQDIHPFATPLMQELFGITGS", "sequence (P19793 whole entry, chain 2 of 2)": "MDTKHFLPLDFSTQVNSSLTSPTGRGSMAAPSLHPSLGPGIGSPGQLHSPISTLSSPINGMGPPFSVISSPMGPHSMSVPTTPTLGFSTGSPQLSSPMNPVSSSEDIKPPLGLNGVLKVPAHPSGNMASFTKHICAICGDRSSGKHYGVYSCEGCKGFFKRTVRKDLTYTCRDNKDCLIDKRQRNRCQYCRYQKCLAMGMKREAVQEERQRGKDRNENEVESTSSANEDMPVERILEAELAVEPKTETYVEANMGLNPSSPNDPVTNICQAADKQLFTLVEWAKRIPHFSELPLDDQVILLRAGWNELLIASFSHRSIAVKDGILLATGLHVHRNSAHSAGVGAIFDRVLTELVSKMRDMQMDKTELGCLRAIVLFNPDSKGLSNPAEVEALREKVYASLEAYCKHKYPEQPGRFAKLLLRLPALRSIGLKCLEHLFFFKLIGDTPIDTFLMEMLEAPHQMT", "assay": "EMSA"}, "CAR:RXR heterodimer": {"biological_target": "CAR:RXR heterodimer (UniProt Q14994;P19793 Q14994:1-352,P19793:1-462)", "sequence (Q14994 whole entry, chain 1 of 2)": "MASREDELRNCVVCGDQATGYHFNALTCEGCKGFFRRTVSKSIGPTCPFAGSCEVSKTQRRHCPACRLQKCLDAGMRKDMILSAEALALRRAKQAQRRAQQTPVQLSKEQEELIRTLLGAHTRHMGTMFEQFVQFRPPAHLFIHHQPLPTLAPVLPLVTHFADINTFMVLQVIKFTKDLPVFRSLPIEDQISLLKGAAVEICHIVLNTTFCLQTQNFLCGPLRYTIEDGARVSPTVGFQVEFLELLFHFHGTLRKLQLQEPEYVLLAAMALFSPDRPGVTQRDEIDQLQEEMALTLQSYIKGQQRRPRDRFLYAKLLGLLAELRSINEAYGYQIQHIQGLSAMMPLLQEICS", "sequence (P19793 whole entry, chain 2 of 2)": "as the sequence (P19793 whole entry, chain 2 of 2) above", "assay": "EMSA"}}, "data": [{"binder": "UGT1A6 DR-3 (dsDNA) DNA 1: ACTGTAGTTCATAAAGTTCACATGG DNA 2: CCATGTGAACTTTATGAACTACAGT", "values": [{"measurement": "binding result", "setting": "SXR:RXR heterodimer", "result": "binds"}, {"measurement": "binding result", "setting": "CAR:RXR heterodimer", "result": "binds"}]}]}
